In PMC9663165, “Human immunomodulatory ligand B7-1 mediates synaptic remodeling via the p75 neurotrophin receptor” (The Journal of Clinical Investigation, 2022):
Where a chain is given by its changes, count along the chain named. Names and notes keep the numbering of the source.

What was measured:
[1] = biological target: T1, human p75 neurotrophin receptor-GFP (human, UniProt P08138 29-427); experiment: flow cytometry on cells; recombinant B7-1-Fc or B7-1N82E-Fc titrated (up to 1.2 uM) onto cells expressing CTLA-4, CD28 or p75NTR; detected with an anti-mouse 647 labelled antibody; EC50 calculated; conditions: one partner purified
T1 construct: also called p75NTR; NGFR; source: HEK293F, transiently transfected, on cells; not shown: GFP, C-terminal, kept
T1 sequence (looked up): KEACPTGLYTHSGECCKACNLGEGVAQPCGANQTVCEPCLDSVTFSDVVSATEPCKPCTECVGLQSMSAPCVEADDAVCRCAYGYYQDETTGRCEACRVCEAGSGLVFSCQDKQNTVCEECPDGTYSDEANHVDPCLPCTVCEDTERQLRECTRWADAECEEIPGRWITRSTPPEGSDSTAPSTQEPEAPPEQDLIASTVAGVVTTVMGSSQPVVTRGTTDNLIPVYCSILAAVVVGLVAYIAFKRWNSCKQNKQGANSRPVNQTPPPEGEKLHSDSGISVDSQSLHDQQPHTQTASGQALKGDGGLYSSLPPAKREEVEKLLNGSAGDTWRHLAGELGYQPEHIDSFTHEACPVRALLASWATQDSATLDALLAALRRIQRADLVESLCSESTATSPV

[2] = biological target: T2, CD28 on cells (Figure S6) ( (human or mouse cDNA cloned), UniProt P10747 19-220); experiment: as above; conditions: one partner purified
T2 construct: CD28; Probably a C-terminal GFP fusion in HEK293F cells as in the other experiments; also called CD28 Expressing Cells; CD28 cells

[3] = biological target: T3, CTLA-4 on cells (Figure S6) ( (human or mouse cDNA cloned), UniProt P16410 36-223); experiment: as above; conditions: one partner purified
T3 construct: CTLA-4; Probably a C-terminal GFP fusion in HEK293F cells as in the other experiments; also called CTLA-4 Expressing Cells; CTLA-4 cells

B7-1–hIgG1 biotin = biological target: T4, B7-1–hIgG1 biotin (human, UniProt P33681 35-233, biotin on the AVI tag); experiment: flow cytometry on protein-coated beads; p75NTR-mIgG2a or CTLA-4–mIgG2a titrated (0 to 100 nM, 30 min) onto streptavidin beads coated with B7-1–hIgG1 biotin; detected with anti-mIgG2a; PBS 0.2% BSA pH 7.4; Hill fit; dimeric fusion proteins; conditions: both partners purified
T4 construct: human B7-1 (CD80) ectodomain, residues 35-233; also called recombinant biotinylated B7-1–Fc protein; B7-1–Fc biotin; source: Expi293 cells stably expressing BirA, transiently transfected, purified; not shown: Fc (human IgG1), C-terminal, kept; AVI tag, C-terminal, kept
T4 sequence (looked up): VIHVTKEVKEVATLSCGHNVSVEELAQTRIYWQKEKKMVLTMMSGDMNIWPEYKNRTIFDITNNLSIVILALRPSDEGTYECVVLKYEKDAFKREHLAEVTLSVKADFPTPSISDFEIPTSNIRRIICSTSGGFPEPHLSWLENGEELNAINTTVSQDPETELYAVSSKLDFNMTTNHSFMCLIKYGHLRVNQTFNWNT

T3 sequence (P16410 36-223): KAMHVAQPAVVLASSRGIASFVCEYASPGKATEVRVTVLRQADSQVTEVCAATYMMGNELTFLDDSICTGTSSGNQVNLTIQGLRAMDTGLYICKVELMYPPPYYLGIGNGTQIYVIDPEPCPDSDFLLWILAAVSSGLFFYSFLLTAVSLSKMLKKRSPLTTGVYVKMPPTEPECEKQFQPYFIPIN

B1: hB7-1-mIgG2A (Fc fusion, human, UniProt P33681 35-233, looked up)
chain: T4 sequence (looked up)
notes: B7-1 (CD80), human, ectodomain residues 35-233; also called B7-1-Fc; WT B7-1-Fc; source: Expi293, transiently expressed, purified (Ni2+ His60 resin, S200 gel filtration); not shown: Fc (mouse IgG2a), C-terminal, kept
An EC50 [1] of 285 nM, an EC50 [2] of 9.7 nM and an EC50 [3] of 0.69 nM were found for B1 in this work.

B2: hB7-1N82E-mIgG2A (Fc fusion, human, UniProt P33681 35-233, looked up)
chain: T4 sequence (looked up) with N48E
notes: B7-1 (CD80), human, ectodomain residues 35-233 with N82E; also called B7-1N82E-Fc; source: Expi293, transiently expressed, purified (Ni2+ His60 resin, S200 gel filtration); not shown: Fc (mouse IgG2a), C-terminal, kept
An EC50 [2] of 10.3 nM and an EC50 [3] of 9.2 nM were found for B2 in this work.

B3: p75^NTR-mIgG2A (Fc fusion, UniProt P08138 29-250, looked up)
chain: KEACPTGLYTHSGECCKACNLGEGVAQPCGANQTVCEPCLDSVTFSDVVSATEPCKPCTECVGLQSMSAPCVEADDAVCRCAYGYYQDETTGRCEACRVCEAGSGLVFSCQDKQNTVCEECPDGTYSDEANHVDPCLPCTVCEDTERQLRECTRWADAECEEIPGRWITRSTPPEGSDSTAPSTQEPEAPPEQDLIASTVAGVVTTVMGSSQPVVTRGTTDN
notes: p75NTR (NGFR) full-length ectodomain; also called p75^NTR-Fc; source: Expi293 suspension cells, transiently transfected, purified; not shown: Fc (mouse IgG2a), C-terminal, kept
An EC50 (B7-1–hIgG1 biotin) of 16 nM was found for B3 in this work.
